Reference: US20150196656A1 (IGF ONCOLOGY, published 2015)

Tests used:
type 1 IGF receptor = target: T1, type 1 IGF receptor (human, UniProt P08069 31-1367); test: competition binding to IGF receptors against radioactive wild type IGF; approximate KD
T1 construct: whole, on cells; also called IGF-1 receptor; IGF-1R
Procedure: 200 ul of each of these was mixed rapidly with 1.8 ml of refold buffer. Refold buffer was 1.4 M urea, 100 mM glycine, 0.5 M NaCl, 19% ethanol, 0.5 mM GSSG, 4 mM GSH, pH 9.5.

dihydrofolate reductase = test: cell-based or functional assay; design: unit not given beside the values

T1 sequence (P08069 31-1367): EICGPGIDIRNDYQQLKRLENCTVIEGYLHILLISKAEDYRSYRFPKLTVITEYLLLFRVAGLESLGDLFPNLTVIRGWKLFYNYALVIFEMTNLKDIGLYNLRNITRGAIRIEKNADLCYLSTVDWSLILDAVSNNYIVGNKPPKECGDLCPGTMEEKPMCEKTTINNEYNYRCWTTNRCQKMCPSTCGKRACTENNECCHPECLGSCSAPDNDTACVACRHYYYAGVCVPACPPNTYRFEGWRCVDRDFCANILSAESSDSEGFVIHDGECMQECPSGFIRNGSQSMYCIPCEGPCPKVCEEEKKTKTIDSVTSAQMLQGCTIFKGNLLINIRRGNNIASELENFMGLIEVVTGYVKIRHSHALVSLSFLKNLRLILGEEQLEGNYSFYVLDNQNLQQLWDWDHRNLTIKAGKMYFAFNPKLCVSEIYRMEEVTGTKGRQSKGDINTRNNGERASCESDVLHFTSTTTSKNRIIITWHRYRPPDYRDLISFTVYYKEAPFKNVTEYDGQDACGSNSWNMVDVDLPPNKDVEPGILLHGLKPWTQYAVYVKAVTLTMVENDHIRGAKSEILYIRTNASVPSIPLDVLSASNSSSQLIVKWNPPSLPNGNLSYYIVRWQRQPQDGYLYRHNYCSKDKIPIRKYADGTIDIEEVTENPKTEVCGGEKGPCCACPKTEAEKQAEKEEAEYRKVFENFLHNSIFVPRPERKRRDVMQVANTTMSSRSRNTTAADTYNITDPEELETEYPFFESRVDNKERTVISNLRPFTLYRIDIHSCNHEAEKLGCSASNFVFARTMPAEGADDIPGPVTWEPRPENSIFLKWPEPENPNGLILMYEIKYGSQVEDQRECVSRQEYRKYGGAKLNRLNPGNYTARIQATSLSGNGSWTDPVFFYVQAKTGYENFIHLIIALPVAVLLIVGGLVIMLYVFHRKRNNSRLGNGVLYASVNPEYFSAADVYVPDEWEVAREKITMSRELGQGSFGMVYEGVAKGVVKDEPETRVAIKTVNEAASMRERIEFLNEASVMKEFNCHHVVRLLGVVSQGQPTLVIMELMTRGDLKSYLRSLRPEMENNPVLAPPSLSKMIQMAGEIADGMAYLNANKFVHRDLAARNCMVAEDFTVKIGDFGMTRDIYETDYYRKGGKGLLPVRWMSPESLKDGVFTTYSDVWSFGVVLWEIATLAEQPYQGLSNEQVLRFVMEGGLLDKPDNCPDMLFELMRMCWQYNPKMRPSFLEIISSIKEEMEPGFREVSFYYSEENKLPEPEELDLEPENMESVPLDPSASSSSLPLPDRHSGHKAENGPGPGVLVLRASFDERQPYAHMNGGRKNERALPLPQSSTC

Binder | Kd (type 1 IGF receptor) [µM] | IC50 (inhibition of dihydrofolate reductase) (dihydrofolate reductase)
403IGF (ligand, also called His6-IGF) MTSGHHHHHHSAGVNGFVNQHLCGSHLVEALYLVCGDRGFYFNKPTGYGSSSRRAPQTGIVDECCFRSCDLRRLEMYCAPLKPAKSA | ~0.002 | 
764IGF (ligand, also called His6-K5-IGF132) MVKGKHHHHHHNGKGKSKFVNQHLCGSHLVEALYLVCGDRGFYFNKPTGYGSSSRRAPQTGIVDECCFRSCDLRRLEMYCAPLKPAKSA | ~0.1 | 
LR3IGF-MTX (other, methotrexate attached to amino groups; MTX:protein ratio of 2.8) MFPAMPLSSLFVNGPRTLCGALVDALQFVCGDRGFYFNKPTGYGSSSRRAPQTGIVDECCFRSCDLRRLEMYCAPLKPAKSEA |  | 99
785IGF (ligand, also called mutTrx-IGF132) MVKQIESKTAFQEALDAAGDKLVVVDFSATWCGHCKMIKPFFHSLSEKYSNVIFLEVDVDDSQDVASESEVKSMPTFQFFKKGQKVGEFSGANKEKLEATINELVGSKSGHHHHHHSAKGFVNQHLCGSHLVEALYLVCGDRGFYFNKPTGYGSSSRRAPQTGIVDECCFRSCDLRRLEMYCAPLKPAKSA | ~0.04 | 
